This note sets out measurements from patent US20220088118A1 (Bicycle, published 2022).

Numbered stars: 1 amine (or outer) side, 2 acyl side, 3 side chain; on linkers, the order of the positions; unused ones are H or OH. Bridge positions count the residues as written; N and C are the ends. Ends that are not written are not given here. TATA = O=C(CC[*:1])N1CN(C(=O)CC[*:2])CN(C(=O)CC[*:3])C1

For the first test, the target named is T1, human carbonic anhydrase IX (human, UniProt Q16790 38-414). Briefly: cell-based or functional assay.
For ACGDCIWVDGWVCA (linker 2-5-13 via TATA) [61-25-01-N001], the “Enzyme IC50” value was found to be 939 nM.

With ACSSECIWVDGWVCA (linker 2-6-14 via TATA) [61-30-01-N001], the “Enzyme IC50” value stood at 1330 nM.

Another test deals with T1, human carbonic anhydrase IX. Briefly: competition fluorescence polarisation, fluorescent ligand (SEQ ID NO: 18)-Sar6-K(FI).
ACHAHCLWVDGWVCA (linker 2-6-14 via TATA) [61-30-00-N001] showed a Ki of 103 nM.

Take ACTETCIWVDGWVCA (linker 2-6-14 via TATA) [61-30-02-N001]: the Ki is 193 nM.

Take ACGRCTWVDGWICA (linker 2-5-13 via TATA) [61-27-00-N001]: the affinity corresponds to a Ki of 1610 nM.

For the molecule ACVDCVWVDGWVCA (linker 2-5-13 via TATA) [61-25-03-N001], the affinity corresponds to a Ki of 70.5 nM. This Ki is about 23-fold lower than that of the molecule before. Same read-out and setting: with ACLSHCLWVDGWVCA (linker 2-6-14 via TATA) [61-31-00-N001] the figure was 326 nM; with ACGDCIWVDGWVCA (linker 2-5-13 via TATA) [61-25-01-N001], 26.5 nM. The same measure, in the same setting: in the case of ACRDCIWVDGWVCA (linker 2-5-13 via TATA) [61-25-02-N001] it was 30 nM; in that of ACGLCIWVDGWVCA (linker 2-5-13 via TATA) [61-26-00-N001], 51 nM.

Regarding ACSSECIWVDGWVCA (linker 2-6-14 via TATA) [61-30-01-N001], affinity was put at a Ki of 99.5 nM. This Ki lies about 2-fold higher than the previous one. ACTDCIWVDGWMCA (linker 2-5-13 via TATA) [61-28-00-N001] displayed a Ki of 442 nM.

Regarding ACVECWADGWVNCA (linker 2-5-13 via TATA) [61-29-00-N001], the Ki was 129 nM.

Consider ACANNCIWVDGWVCA (linker 2-6-14 via TATA) [61-30-03-N001], for which the Ki was found to be 158 nM. On to ACGACTWADGWVCA (linker 2-5-13 via TATA) [61-25-00-N001], for which the affinity, expressed as Ki, was 2280 nM.

The term Ki denotes the dissociation constant of the complex between target and ligand, obtained from inhibition or displacement.
